experiment: soluble on expression in E. coli; label from the status in PepcDB or PDB records

| Sequence | soluble on expression in E. coli |
| --- | --- |
| MGSDKIHHHHHHMGSETEYGIHAPSAPGANATMMSARVIQAYAQLTRQRAAGGAETRWDYTDEEPLHDARGWTLERNQADPSQLTDQPPVLDAEAVALAYGREELEQDGEDETGSLLMNMVLGNGARLYVDHAHPEYSSPEVTNPLDAVAWDAAGDLVALSAVRRMAADPQLPPVNLYKNNTDNKSVSYGSHENYLMPRAVPFGDIVRGLTPFFITRQIMCGAGRVGLGQDSSRPGYQISQRADFFEAEVGLETTIRRPIINTRDEPHATADKYRRLHVIIGDANLSQAANYLKFGTTAMVLSLIEAGLAPRVEVHEPVAALQAVSHDTSLTATLRLLDGRRVTALDLQWMYHEAAAKLAQDTGVGDSVDGDGHTHALLERWAATLTDLDSDRTAAASSVEWLAKLSLLEGYRQRDGLQWNDARLGLVDLQWADVRPEKGLYYRMLARGRMDRIVADETIARAMTEPPSDTRAYFRGRCVSSFSKDVVGASWDSVIFDVPGHGRLQRVPTREPLRGTEALTGGLFARHKDTGSFLAELLGQTPPPPPA | not soluble |
| MSLETWYDFDLPLDRTDPITIIHFNDVYNIESRCDGTGGVSRFVTALQSFQHKHPLILFSGDVLNPSVMSTYTRGRHMVPFLNLLKIHTACFGNHDFDFGIDELEYAVGSCSFPWLISNVFEKTGQTGLPLANGMKYRLFEWQGIRVGIIGLVEKEWLDTLACIDKDDVVYVDFVEAANCLCRILRQKECELIIALTHMRAPNDERLAKEAEDIDLILGGHDHDYYGLQRIGNIPVVKSGTDFRDFTVITIHPGQGSRLDASSLPTPPTQNKFGSTTFVSEEAARREAAVTAEMFKGPLLPTTVEGGEEVMPFFLGGSIVEWSRVRVDPERFEKNKHVELLVKKYEQNLKKQMKQILVDAACDLETRFSVIRTSESNVGNWLCDLMRRECRADIAILNSGTIRSDCLFPPGPFRFGDLAAMLPMTDTLCVIAVHGNVLLQALENAVSQLPKTEGRFLQVAGIRFAFNSSKPVGQRVVRDSVKVAQDACGRVHSGAATPVGEGKKSESDYLPLDENRVYSVATKTYLAQGRDGFHMLSKCPVLVEDELLPPLPTMVRSALSMAEMANGIKRPHSRITFKRLTEGHHHHHH | not soluble |
| MVAGGFGVGKTTLIGSVSEVRPLRMEEPITQASAGVDDLRGTPHKTTTTVAMDFGRIHMAGGRLALYLFGLPGQSRFQPLWEDLAEGALGCLVLADTRDLDASHDALGLLDGAGIPYAVAINTFPGSPSYPEAELREALALEPATPLTYCDARDRTSSLHALITLTEYLSEHRSAALLESRRLEHHHHHH | not soluble |
| GGDFREYRDLMDTQVVLGFEGRPYHARDFYAAQILSIILGGGMSSRLFQEVREKRGLCYSIYAFHWGFSDIGLFGLHAATGQEKLKELLPVILDELSKVSKNIHTNELQRARAQYRATLTMAQENPSSQANFIARQILLYGREIPLSETIERLELITPARLTDLAGRLFINATPTLAAVGPVGSLMNFDNLTSTL | not soluble |
| MTTVRQRIDTQHRDAIHDAQLNIYGSRLATCGSDRLVKIFEVRPNGQSYPMAELVGHSGPVWKVSWAHPKYGGLLASASYDKKVIIWNEQQGRWQKAYEWAAHEASTTCVAFAPHQYGLMLASASADGDIGILRYDNSSNEWISSKIQKCHEQGVNSVCWAPGSADPAAKKRLVSAGNDKNVKIWALSQFGAKIFRDNGSKCHVTIRNARE | soluble |
| MISIFDIFKIGIGPSSSHTVGPMKAAAAFAAGLDAQAVRIVIDIYGSLALTGYGHGTFDALMLGLEGSLPHDIPLAGIPERLERIRTQHILRLNGQEIRFIPDRDLNILGNQVLPKHPNSLRFTAYASDGTVLNEQVYYSVGGGFVVTEEDFDR | not soluble |
| MDFYDTDELRDFMALVEKTNDIKKIALFRILAFTGIRKGELLALEWKDYRKSTLDINKAISHSPVGYEILPPKANSNRLLSLDEKTCKILDELHQTYPESTRIFESENGGMLSPSKPRKWLLEITKEKEIEPIRIHAFRHTHASLLFESGMSLKQVQYRLGHADLKTTMNIYTHITKLEHHHHHH | not soluble |
| MGSSHHHHHHSSGLVPRGSHMVNKRMSMVVSGLTPEEFMLVYKFARKHHITLTNLITEETTHVVMKTDAEFVCERTLKYFLGIAGGKWVVSYFWVTQSIKERKMLNEHDFEVRGDVVNGRNHQGPKRARESQDRKIFRGLEICCYGPFTNMPTDQLEWMVQLCGASVVKELSSFTLGTGVHPIVVVQPDAWTEDNGFHAIGQMCEAPVVTREWVLDSVALYQCQELDTYLIPQIP | soluble |
| TVNQAKIFAQTTKMLEFAKQLLETDDFSTLREAYYVSKNWGEARFDDQQASNNVIEDLEAALGVLREHLGFIPEEDGSSVVGPLKIIEETPEGELVVDCTKLGTGAYNIPNDVTKLNLETDADFILAIETSGMFARLNAERFWDKHNCILVSLKGVPARATRRFIKRLHEEHDLPVLVFTDGDPYGYLNIYRTLKVGSGKAIHLADKLSIPAARLIGVTPQDIIDYDLPTHPLKEQDIKRIKDGLKNDDFVRSFPEWQKALKQMLDMGVRAEQQSLAKYGLKYVVNTYLPEKIKDESTWLP | soluble |
| MSLAELAAVPAAPDDRLYSADNTQSSGETIRHLTWSGYEAANVQRPFEKKFDCQTGVDLFTSNLDAFNRLDDGAWREFDHATFDMAWLPDLAEAGLIRPLDYEAWKPYTFDKYTDLFQRENGYEFAFLDEDYNFDADGQLYGVPQRFGWASFALNTDVVSESDARSYDAAWADEYDVGVYDLPFWGVQIVMLREGIDPYATHTDAEVERIREATVALFENAAGVYADVGSLNTALAAGDIDIAFVSGNWINGSLRRGGRFEYEARVPDEGGVIWVETTTMLKGSHPSVSTNYLAYMQHGITAKNLMWPTVGGTNVVPHQSSIDRLNRRQRTVLRIDDLQDIIDKSRFYTGEGHHHHHH | soluble |
| MGSDKIHHHHHHMLRGLWGAAAGMITQQQRQEMLTNNLANVNTPGYKADQAAIRAFPNMLIAAMNTGNVPKGVAPVIGELTTGVYLQERMPNFRQGDLVETQNNTDVALLQGVMPTNEENGQPWALFYTVQNENGEVRYTRNGNFTVDGDGFLTTGDGFYVLGTDGNPLQVNNEWFNVDGDGMITDEAGAAIGQINVVVAEDPMQLVKEGNGLLRFEGDGELPTGVGNAAVNYQLQQGFIERSNVDAAQTMTEMMQAYRTFEANQQVLRAYDESLGKAVNEVGRIG | not soluble |
| DGFKIVQFSDAHLSDYFTLEDLKTVILTINESKPDLIVFTGDIIDNPDTYQHHQAVIPLLRKLNAPFGKLCIYGNHDHGGYGTAVYKSLMTAGGFTVYRNGYQTLSLADGSKIEIASLDDFNAGKPRFMQGTLSRLSDRLFSILLVHEPDAALKTTDYPVNLQLSGHTHGGQIQLPFYGPIITPPYGKVYTEGMYQTGSTHIYVNRG | not soluble |
| MGSDKIHHHHHHMSTLLQIKNLRTYFFTDEGVVKAVDGVSFEIEEGRTLGVVGESGCGKSVTARSIIKLLSTAGRIVSGEILYNMDGQMVDLVKFSKEEIRKVRGRHIAMIFQEPMAAFSPVYTIGDQITEGMIYHFGITKQEARERAVELLRRVGIPKPEKMIDSYPFEYSGGMRQRAMIAMALSCNPRLLIADEPTTALDVTIQAQVLDLLKDLQQEYKMAIMMITHNMGVVAEMADHVVVMYLGRVVESAPVEELFYNPKHPYTSLLLRSIPVVGKRVERLEVIEGDVPDPRNMPKGCRFHPRCPYMMKGICDEREPVEVEVGPEHRVSCFLYGGEKDGAS | not soluble |
| MRYERIKYILLFSLMHLVYSNSTFESNPEVRNKSNIYDLPPLLDVTSVNEETPIVKRPINERIENLEFDPRFEIDQAKLEISEDKLGSGFFGEVCYGLLSMRTSNTETDTLQKLSVAVKQSNDPTQENQEKMIEDETKLMCAIGRNPNILAIIGAVTANSGSARNLLIVEFVECGDLLKFLEEKKSIFKDELVYEKNGYLLPKSIRRKTYMFNENEDDVIEESLDSLCTSDLLSFSYQIAEGMEYLASIPCVHRDLALRNVLLNKNKTIRIADFGLARKYQVDGYYRITKGVGTPMPARWMAPEVMREGKCTEKSDVWSYGVSLYEMFSLGELPYSNVSNSDVFEHVVQGNQLPMPQYCHPKMYDRMKQFWNFDATFRPSFSKCVEFFEEHLSVSATNLLEQIQKTLKSEAERQSKLEDWIRRD | not soluble |
| MGSDKIHHHHHHMAVELRYDEEAVFLRRVNRFVVEVKSSRGVVRCHLMDTGRIDHLASPGRRGVLIAWLNRLGGKTVCRAQAFKTAGGVVAVVDSRVPNRLFAEAAPMVVGGDASIEAEREVFGSRLDFLISTGRGLWAVEVKGVNLSLDGVGLFPNAPSARAVKHLEVLARLAREGVKPLMAFVALRPDIRVFAPNYRVDRRFASLACTLLRRGLVGMVGIRVSIDLEPGVVRIRPVATAPVQCPPLQPGR | not soluble |
| MSLTRCVLEGMKTKHALRHHMKLHKGIKEYECKECHRRFAQKVNMLKHCKRHTGIKDFMCELCGKTFSERNTMETHKLIHTVGKQWTCSVCDKKYVTEYMLQKHVQLTHDKVEAQSCQLCGTKVSTRASMSRHMRRKHPEVLAVRIDEGHHHHHH | not soluble |
| MRKFLSKTHHHTNPLWRVYRLVKFSKVFKNVIIIEFSKFIPSMVLKRHIYKQLLNINIGNQSSIAYKVMLDIFYPELITIGSNSVIGYNVTILTHEALVDEFRYGPVTIGSNTLIGANATILPGITIGDNVKVAAGTVVSKDIPDNGFAYGNPMYIKMIRR | not soluble |
| MRLLVADDHPLFRLGLKAALEAEGLEVVAEAGTGEEALVQALEKAPDAVLLDLRMPGMDGLTCARRLREMGYRGLVILLTTYQEPALLLEAYKAGADAYLSKELSAPELKRRLLRIRQGEERLTAPDIPALTPREEEVLRLLAEGLSTKEIARALRLSPETVRSHLESLYAKLEARNRVEALSRARSLGLLP | soluble |
| MSLSGTDIHTSDYYFLFEEKFRGSRELVKARLRRYIPYFKGCRRVLDIGCGRGEFLELCKEEGIESIGVDINEDMIKFCEGKFNVVKSDAIEYLKSLPDKYLDGVMISHFVEHLDPERLFELLSLCYSKMKYSSYIVIESPNPTSLYSLINFYIDPTHKKPVHPETLKFILEYLGFRDVKIEFFEECEELTKLAKIDSNTVSEEVIRVINENIEKLNRILFGPQDYAIIAKKEGHHHHHH | soluble |
| MGSDKIHHHHHHACEQNEDWVVNEPMQSFEENPEYAPLNTIPDWVSEKVTPKEYELWRTMSSRYEINYSFLKKDISEKRKKEIYDCINNICERIEKGQINKYEGFLNIADEDGTTLSDSQYFGRIATRSPEGGAEYKTNGCTLYTHSLGPYIKAAVTYKKSDDDVTITSSSVYTGSPYLGNDPSFSGASSVSYDKDKKLIAASCSGTLSFKDGSRKVEVTVQKTGFMIP | not soluble |
| ASPIGEGTFDDGPEGWVAYGTDGPLDTSTGALCVAVPAGSAQYGVGVVLNGVAIEEGTTYTLRYTATASTDVTVRALVGQNGAPYGTVLDTSPALTSEPRQVTETFTASATYPATPAADDPEGQIAFQLGGFSADAWTLCLDDVALDSEVEL | soluble |
| MGKFISGSIVAILTDQIEESTACNLKHLLRNDPLFKPLIQTNVHKKRSAYEIIGVHTCEENEPCRIGRTRSCLCQEDFVCDKTPANKNVHLCTKLGYFRLFEANKK | not soluble |
| MHQRCNTRGGQDMGFDSRAAKKLKAMFKQQCRDAGAVCWLCGQPINYDAPPNSRDSFEPDHFYPQATHPELAEDPENLRPSHCSCNRSRKDGVPAPSLGSLSEQW | not soluble |

Source: the DeepSol protein solubility set
